According to the supplement of paper PMC12783771:
± gives the standard deviation of the averaged measurements.

B1: library; numbered along this chain (parent)
chain: MNIQIGELAKRTACPVVTIRFYEQEGLLPPPGRSRGNFRLYGEEHVERLQFIRHCRSLDMPLSDVRTLLSYRKRPDQDCGEVNMLLDEHIRQVESRIGALLELKHHLVELREACSGARPAQSCGILQGLSDCVCDTRGTTAHPSD

Legend:
[1] = variants of: B1; assay: sfGFP reporter fluorescence (15 h) (µM FITC); higher = higher leak; conditions: library round: Round 0; ligand: none
Method in brief: (§1)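 An Echo normalized PCR-made linear PbrR templates to 5 nM and assembled 1 μL reactions in BL21 Star (DE3) PANOx-SP extract carrying the pPbrR-sfGFP reporter plasmid and 30 μg/mL GamS. Reactions received 1 µM lead chloride, 30 µM zinc acetate or no metal and stood 15 hr at 30 °C. Fluorescence at 485/528 nm (Synergy Neo2) was converted with FITC standard curves made in 50 mM sodium borate pH 8.5. Endpoint sfGFP signal is given in µM FITC, from up to three biological replicates.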

[2] = variants of: B1; assay: sfGFP reporter fluorescence (15 h) (µM FITC); higher = stronger transcriptional activation; conditions: library round: Round 0
Method in brief: as §1

Variant | sfGFP reporter fluorescence [1] | sfGFP reporter fluorescence ([2]; ligand: 1 µM Pb) | sfGFP reporter fluorescence ([2]; ligand: 30 µM Zn)
L68P | 0.0632 ± 0.0029 | 0.0583 ± 0.0015 | 0.0652 ± 0.0026
L68C | 0.0678 ± 0.0031 | 0.0874 ± 0.0044 | 0.504 ± 0.017
L68H | 0.0623 ± 0.0026 | 0.0577 ± 0.0013 | 0.0795 ± 0.0015
L68A | 0.0623 ± 0.001 | 0.0619 ± 0.0047 | 0.156 ± 0.0049
L68M | 0.0902 ± 0.0021 | 0.2142 ± 0.0013 | 1.42 ± 0.044
L68W | 0.0627 ± 0.0026 | 0.06157 ± 0.00052 | 0.111 ± 0.0018
L68F | 0.07935 ± 0.00078 | 0.166 ± 0.0029 | 1.42 ± 0.11
L68R | 0.06175 ± 0.00026 | 0.0579 ± 0.001 | 0.0596 ± 0.0029
L68Q | 0.0603 ± 0.00078 | 0.05736 ± 0.00026 | 0.0629 ± 0.0018
L68D | 0.0619 ± 0.001 | 0.061 ± 0.0013 | 0.0636 ± 0.0023
L68S | 0.061 ± 0.0023 | 0.05882 ± 0.00026 | 0.0636 ± 0.0039
L68E | 0.0623 ± 0.00052 | 0.05974 ± 0.00052 | 0.0652 ± 0.0015
L68G | 0.06395 ± 0.00026 | 0.05827 ± 0.00052 | 0.0656 ± 0.00052
L68N | 0.0588 ± 0.0013 | 0.05992 ± 0.00026 | 0.0599 ± 0.0013
L68I | 0.0599 ± 0.0013 | 0.059 ± 0.0021 | 0.214 ± 0.047
L68Y | 0.0634 | 0.0773 ± 0.0031 | 0.908 ± 0.05
P75A | 0.0618 ± 0.0023 | 0.0711 ± 0.01 | 0.519 ± 0.049
L69A | 0.0629 ± 0.0018 | 0.0627 ± 0.0021 | 0.2252 ± 0.0013
Q92A | 0.0592 ± 0.0013 | 0.063 ± 0.0026 | 0.421 ± 0.042
D78A | 0.0713 ± 0.0065 | 0.0689 ± 0.0021 | 0.1 ± 0.0026
R91A | 0.0618 ± 0.00078 | 0.0724 ± 0.0029 | 0.6942 ± 0.0015
Y71A | 0.05974 ± 0.00052 | 0.0575 | 0.22 ± 0.0036

Variant | sfGFP reporter fluorescence [1] | sfGFP reporter fluorescence ([2]; ligand: 1 µM Pb) | sfGFP reporter fluorescence ([2]; ligand: 30 µM Zn)
E94V | 0.059 ± 0.0042 | 0.0847 ± 0.0052 | 0.739 ± 0.052
E94H | 0.0592 ± 0.0029 | 0.0632 ± 0.0023 | 0.344 ± 0.021
E94Y | 0.0577 ± 0.0034 | 0.0553 ± 0.0047 | 0.153 ± 0.0047
E94K | 0.0612 ± 0.0026 | 0.0793 ± 0.0034 | 0.824 ± 0.043
E94G | 0.0553 ± 0.0036 | 0.0656 ± 0.0031 | 0.52721 ± 0.00026
E94A | 0.0738 ± 0.0044 | 0.0867 ± 0.0065 | 0.333 ± 0.015
E94R | 0.0597 ± 0.0052 | 0.0803 ± 0.0031 | 0.722 ± 0.032
E94L | 0.0579 ± 0.0021 | 0.0698 ± 0.0075 | 0.583 ± 0.006
E94I | 0.0555 ± 0.0034 | 0.08008 ± 0.00026 | 0.714 ± 0.013
E94F | 0.0563 ± 0.0044 | 0.0579 ± 0.001 | 0.177 ± 0.006
E94M | 0.0581 ± 0.0018 | 0.0726 ± 0.0047 | 0.598 ± 0.031
E94P | 0.0535 ± 0.0026 | 0.0533 ± 0.0023 | 0.05571 ± 0.00052
E94Q | 0.0632 ± 0.0013 | 0.0856 ± 0.008 | 1.02 ± 0.07
E94N | 0.0607 ± 0.0013 | 0.0755 ± 0.0047 | 0.659 ± 0.026
E94C | 0.0645 ± 0.0021 | 0.115 ± 0.011 | 0.946 ± 0.18
E94D | 0.0579 ± 0.0052 | 0.0623 | 0.32 ± 0.013
E94T | 0.0673 ± 0.0029 | 0.108 ± 0.03 | 1.27 ± 0.29
E94S | 0.0674 ± 0.0036 | 0.132 ± 0.0031 | 1.51 ± 0.013
E94W | 0.0577 ± 0.0039 | 0.05516 ± 0.00026 | 0.143 ± 0.0054
R66A | 0.0627 ± 0.0015 | 0.0751 ± 0.0047 | 0.616 ± 0.13
N83H | 2.73 ± 0.37 | 2.63 ± 0.52 | 3.526 ± 0.0086
N83P | 0.05772 ± 0.00026 | 0.0579 ± 0.001 | 0.0552 ± 0.0023
